From paper doi:10.1101/2023.01.09.523336

Biological target: Cyanophycin synthetase 1 (CphA1) from Tatumella morbirosei DSM 23827 (Tatumella morbirosei DSM 23827)
Test: SEC

stoichiometry N: 4
Substance: Cyanophycin synthetase 1 (CphA1) from Tatumella morbirosei DSM 23827 (enzyme)
